Experimental data reported in paper PMC1420302.

Molecular target: SF3b1-NT-His6 (human) (UniProt O75533)
UniProt O75533, sequence (O75533 1-511): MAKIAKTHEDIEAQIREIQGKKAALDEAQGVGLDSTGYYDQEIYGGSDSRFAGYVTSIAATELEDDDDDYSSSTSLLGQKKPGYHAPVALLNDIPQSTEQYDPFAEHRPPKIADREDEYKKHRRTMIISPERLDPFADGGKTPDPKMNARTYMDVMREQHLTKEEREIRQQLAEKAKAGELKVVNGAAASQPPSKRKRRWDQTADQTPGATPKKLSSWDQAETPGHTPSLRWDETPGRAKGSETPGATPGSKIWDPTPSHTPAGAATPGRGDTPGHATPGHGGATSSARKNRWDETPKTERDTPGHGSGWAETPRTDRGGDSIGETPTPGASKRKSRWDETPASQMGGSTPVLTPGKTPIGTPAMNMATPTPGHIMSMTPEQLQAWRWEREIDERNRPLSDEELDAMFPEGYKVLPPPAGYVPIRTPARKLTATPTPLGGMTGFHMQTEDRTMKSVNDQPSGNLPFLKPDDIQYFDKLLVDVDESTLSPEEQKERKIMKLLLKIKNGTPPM

| approximate Km of phosphorylation, from velocities of phosphate incorporation at 0.7 and 7 μM substrate | Substance |
| --- | --- |
| 3.51 µM | cyclin E/CDK2 (from UniProt P24864 1-410; P24941 1-298) (complex) |
| 2.75 µM | GST-DYRK1A-ΔC (from UniProt Q63470 1-763) (enzyme) |
